In paper PMC314469, “Protein Interaction Networks by Proteome Peptide Scanning” (PLoS Biology, 2004):

T1: amphyphisin SH3 (AMPH_HUMAN), P49418
T1 chain: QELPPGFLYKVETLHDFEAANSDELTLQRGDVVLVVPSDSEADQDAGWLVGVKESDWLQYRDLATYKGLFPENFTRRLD


Target: T1, amphyphisin SH3 (AMPH_HUMAN), P49418
Experiment: SPOT array

| normalised SPOT signal, Boehringer light units (BLU); mean over the file's lines of this peptide | Binder |
| --- | --- |
| 37.2 | RLPELKRPSGDQVQ [Q07075 143-156] |
| 16.3 | RKMEIYRPHKATAE [Q92769 50-63] |
| 774 | RPPFLSRPARGLYS [Q16512 357-370] |
| 2730 | RLLPPQRPGKSQRV [Q9UJS3 337-350] |
| 31.9 | AVGPPKRPQPAALE [Q9ULK5 32-45] |
| 35.7 | RPPPPRRPQGPPPP [Q04118 259-272] |
| 29.1 | RNPVLRRPPILEDY [Q96S08 361-374] |
| 66.8 | RKPKPERPPSSSSS [Q9BW08 289-303] |
| 197 | RPAVLPRPEKPQLP [P78314 398-411] |
| 4460 | RLIAISRPLRYVTV [P58180 122-135] |
| 17100 | RLGPPKRPPRKLGP [O15235 37-51] |
| 15.2 | RLRHLRRPRVARLL [Q9H1C0 128-141] |
| 5400 | RPPVPPRPPRPPET [P52849 66-80] |
| 38 | RLAALKRPDDVPLS [Q9UFC0 277-290] |
| 554 | RMKRPFRPPPAHFQ [P58012 147-161] |
| 163 | RPAKPHKPPGSMGL [O60292 677-691] |
| 103 | RKPELERPIKVNLA [Q01650 421-434] |
| 12.5 | RLHRLRRPHSSSDA [Q9NT23 226-239] |
| 1990 | RPAPPQRPPPPSGA [O43426 1118-1132] |
| 38.9 | AAAVPRRPTQQGTV [Q96SQ5 2-15] |
| 13300 | RPPGPRRPERGPRG [P08913 304-317] |

| normalised SPOT signal, Boehringer light units (BLU); mean over the file's lines of this peptide | Binder |
| --- | --- |
| 7260 | RPPRPSRPPPPTPR [O43584 87-101] |
| 594 | RPRRPRRPGPSDPA [Q96QG0 344-357] |
| 156 | RPNPLRRPLNRKRA [Q96CZ1 23-36] |
| 1830 | RPEDPTRPSRFQQQ [O15067 285-298] |
| 54.8 | RPALPGRPPQVAEQ [BAC05290 145-159] |
| 352 | RMLVPGRPVKDATP [O94938 456-469] |
| 35.2 | RLKTLRRPRVRDRL [Q9NRC6 2111-2124] |
| 162 | RLAGPPRPPGHPRE [Q9BQU6 64-78] |
| 3930 | RPHAPGRPARGKVQ [Q16439 323-336] |
| 106 | AVAVPRRPRAGAER [O94839 5-18] |
| 896 | RLRLPPKPPPPLQP [Q14296 184-198] |
| 1390 | RLFSIVRPRRLLYM [Q9UL53 87-100] |
| 16100 | RPALPGRPPRWLNR [Q8TDZ8 103-117] |
| 4180 | AVAPPARPPRPPYP [AAH27972 515-529] |
| 1130 | RLIAPRRPWTLSHV [Q96M18 45-58] |
| 213 | RLNWLGRPSKVLSL [O00407 179-192] |
| 235 | RLTSPLRPPEGVRL [O75467 160-174] |
| 12 | RPPNLKRPEDYEAV [O75992 403-416] |
| 32.4 | RPPPPAKPPPDEEE [Q92625 451-465] |
| 177 | RKWYPLRPKKINLD [Q9NRN8 254-267] |
| 37.2 | RLYSIHRPSKQSLN [P55001 106-119] |

The binders below were run against endophilin SH3 (SH3G2_HUMAN), Q99962 (assay: SPOT array).

| normalised SPOT signal, Boehringer light units (BLU); mean over the file's lines of this peptide | Binder |
| --- | --- |
| 34.9 | RLPELKRPSGDQVQ [Q07075 143-156] |
| 179 | RKMEIYRPHKATAE [Q92769 50-63] |
| 1450 | RPPFLSRPARGLYS [Q16512 357-370] |
| 25000 | RLLPPQRPGKSQRV [Q9UJS3 337-350] |
| 393 | AVGPPKRPQPAALE [Q9ULK5 32-45] |
| 3820 | RPPPPRRPQGPPPP [Q04118 259-272] |
| 15.8 | RNPVLRRPPILEDY [Q96S08 361-374] |
| 7630 | RKPKPERPPSSSSS [Q9BW08 289-303] |
| 213 | RPAVLPRPEKPQLP [P78314 398-411] |
| 658 | RLIAISRPLRYVTV [P58180 122-135] |
| 10500 | RLGPPKRPPRKLGP [O15235 37-51] |
| 24.3 | RLRHLRRPRVARLL [Q9H1C0 128-141] |
| 8560 | RPPVPPRPPRPPET [P52849 66-80] |
| 49.2 | RLAALKRPDDVPLS [Q9UFC0 277-290] |
| 5130 | RMKRPFRPPPAHFQ [P58012 147-161] |
| 5260 | RPAKPHKPPGSMGL [O60292 677-691] |
| 123 | RKPELERPIKVNLA [Q01650 421-434] |
| 9.6 | RLHRLRRPHSSSDA [Q9NT23 226-239] |
| 12200 | RPAPPQRPPPPSGA [O43426 1118-1132] |
| 182 | AAAVPRRPTQQGTV [Q96SQ5 2-15] |
| 4970 | RPPGPRRPERGPRG [P08913 304-317] |

| normalised SPOT signal, Boehringer light units (BLU); mean over the file's lines of this peptide | Binder |
| --- | --- |
| 13600 | RPPRPSRPPPPTPR [O43584 87-101] |
| 1340 | RPRRPRRPGPSDPA [Q96QG0 344-357] |
| 200 | RPNPLRRPLNRKRA [Q96CZ1 23-36] |
| 149 | RPEDPTRPSRFQQQ [O15067 285-298] |
| 501 | RPALPGRPPQVAEQ [BAC05290 145-159] |
| 2930 | RMLVPGRPVKDATP [O94938 456-469] |
| 32.1 | RLKTLRRPRVRDRL [Q9NRC6 2111-2124] |
| 2700 | RLAGPPRPPGHPRE [Q9BQU6 64-78] |
| 1270 | RPHAPGRPARGKVQ [Q16439 323-336] |
| 256 | AVAVPRRPRAGAER [O94839 5-18] |
| 6030 | RLRLPPKPPPPLQP [Q14296 184-198] |
| 702 | RLFSIVRPRRLLYM [Q9UL53 87-100] |
| 13400 | RPALPGRPPRWLNR [Q8TDZ8 103-117] |
| 9580 | AVAPPARPPRPPYP [AAH27972 515-529] |
| 2240 | RLIAPRRPWTLSHV [Q96M18 45-58] |
| 270 | RLNWLGRPSKVLSL [O00407 179-192] |
| 1040 | RLTSPLRPPEGVRL [O75467 160-174] |
| 67.7 | RPPNLKRPEDYEAV [O75992 403-416] |
| 89 | RPPPPAKPPPDEEE [Q92625 451-465] |
| 204 | RKWYPLRPKKINLD [Q9NRN8 254-267] |
| 290 | RLYSIHRPSKQSLN [P55001 106-119] |
